{"source": "paper PMC9864903", "about": "“Imaging of the Glucose-Dependent Insulinotropic Polypeptide Receptor Using a Novel Radiolabeled Peptide Rationally Designed Based on Endogenous GIP and Synthetic Exendin-4 Sequences” (Pharmaceuticals, 2022)", "key": {"[1]": {"assay": "post-production stability of the 68Ga-labeled product at room temperature (UV-Radio-HPLC)", "assay_type": "physicochemical", "details": "ambient temperature, for at least 2 h, with addition of ascorbic acid", "description": "The ^68Ga-labeling procedure was optimized in terms of the radiochemical yield and required optimization of such factors as temperature, heating time, radical scavenger content, buffer concentration, pH, and product purification mean. The labeling was reproducible with a high non-decay corrected radiochemical yield of 61.1 ± 2.9% and a molar activity of 59.8 ± 4.4 MBq/nmol at the end of the synthesis (Figure 2). The radioactivity at the end of the synthesis was 424 ± 29 MBq with a radiochemical purity of 94.5 ± 0.3% (for the chromatogram, see Supplementary Materials, Figure S1). […]\nThe ^68Ge/^68Ga generator (pharmaceutical grade, GalliaPharm®, Eckert & Ziegler, Berlin, Germany) eluate was fractionated, and the top fraction of 3.5 mL containing approximately 90% of the radioactivity was collected for the radiolabeling. […] The radiochemical purity and the peptide concentration in the product were determined by high-pressure liquid chromatography (HPLC). […] The stability of the product at room temperature was monitored for 2 h and assessed by UV-Radio-HPLC. […] The total radioactivity of the product was then measured in an ionization chamber. The radioactivity recovery from the analytical column was controlled by performing an analysis of the product, generator eluate, and the product spiked with the generator eluate with and without column. […]"}, "[2]": {"assay": "human predicted dosimetry extrapolated from rat organ distribution (OLINDA/EXM 1.1)", "method": "The predicted dosimetry in humans was calculated using [^68Ga]Ga-C803-GIP organ distribution data obtained in healthy male Sprague Dawley rats. The rat decay-uncorrected SUVs (SUVA) in various organs were normalized to the whole-body adult reference phantom weights (Equation (2)) in order to assess the residence times (MBq-h/MBq) of the tracer in those organs. The data from the measured time points (5, 10, 20, 40, 60, 90, 120, and 180 min) were used for trapezoidal approximation followed by the extrapolation from the last point to infinity by a single exponential fit. The bone marrow blood volume model was used for the determination of the residence time in bone marrow. The absorbed doses were calculated using OLINDA/EXM version 1.1 with reference to adult male and female phantoms (International Commission on Radiological Protection 60). (2) [%/organ]human=SUVA×(gorgan/kgweight)human"}}}
{"smiles": "CC[C@H](C)[C@H](NC(=O)[C@H](CO)NC(=O)[C@H](Cc1ccc(O)cc1)NC(=O)[C@H](CC(=O)O)NC(=O)[C@H](CO)NC(=O)[C@@H](NC(=O)[C@H](Cc1ccccc1)NC(=O)[C@@H](NC(=O)CNC(=O)[C@H](CCC(=O)O)NC(=O)[C@@H](C)NC(=O)[C@@H](N)Cc1ccc(O)cc1)[C@@H](C)O)[C@@H](C)CC)C(=O)N[C@@H](C)C(=O)N[C@@H](CC(C)C)C(=O)N[C@@H](CC(=O)O)C(=O)N[C@@H](CCCCN)C(=O)N[C@H](C(=O)N[C@@H](Cc1c[nH]cn1)C(=O)N[C@@H](CCC(N)=O)C(=O)N[C@@H](CCC(N)=O)C(=O)N[C@@H](CCC(=O)O)C(=O)N[C@@H](Cc1ccccc1)C(=O)N[C@H](C(=O)N[C@@H](CCC(=O)O)C(=O)N[C@@H](Cc1c[nH]c2ccccc12)C(=O)N[C@@H](CC(C)C)C(=O)N[C@@H](CCCCN)C(=O)N[C@@H](C)C(=O)NCC(=O)NCC(=O)N[C@@H](Cc1c[nH]cn1)C(=O)N1CCC[C@H]1C(=O)N[C@@H](CO)C(=O)NCC(=O)N[C@@H](C)C(=O)N1CCC[C@H]1C(=O)N1CCC[C@H]1C(=O)N1CCC[C@H]1C(=O)N[C@@H](CO)C(=O)N[C@@H](CSCCS(=O)(=O)CCN1CCN(CC(=O)O)CCN(CC(=O)O)CCN(CC(=O)O)CC1)C(N)=O)[C@@H](C)CC)[C@@H](C)CC", "note": "[[^68Ga]Ga-C803-GIP, metal not drawn]", "values": [{"measurement": "radiochemical purity on post-production storage (stability)", "setting": "[1]", "result": "over 91%"}, {"measurement": "predicted absorbed radiation dose, kidneys, females", "setting": "[2]; human", "result": 0.773, "unit": "mGy/MBq"}, {"measurement": "predicted absorbed radiation dose, kidneys, males", "setting": "[2]; human", "result": 0.713, "unit": "mGy/MBq"}, {"measurement": "Equivalent dose, Adrenals, Female", "setting": "[2]; human female phantom", "result": 0.0124, "unit": "mSv/MBq"}, {"measurement": "Equivalent dose, Brain, Female", "setting": "[2]; human female phantom", "result": 0.000658, "unit": "mSv/MBq"}, {"measurement": "Equivalent dose, Breasts, Female", "setting": "[2]; human female phantom", "result": 0.00113, "unit": "mSv/MBq"}, {"measurement": "Equivalent dose, Gallbladder Wall, Female", "setting": "[2]; human female phantom", "result": 0.00555, "unit": "mSv/MBq"}, {"measurement": "Equivalent dose, Heart Wall, Female", "setting": "[2]; human female phantom", "result": 0.0362, "unit": "mSv/MBq"}, {"measurement": "Equivalent dose, Kidneys, Female", "setting": "[2]; human female phantom", "result": 0.773, "unit": "mSv/MBq"}, {"measurement": "Equivalent dose, LLI Wall, Female", "setting": "[2]; human female phantom", "result": 0.00196, "unit": "mSv/MBq"}, {"measurement": "Equivalent dose, Liver, Female", "setting": "[2]; human female phantom", "result": 0.00754, "unit": "mSv/MBq"}, {"measurement": "Equivalent dose, Lungs, Female", "setting": "[2]; human female phantom", "result": 0.0073, "unit": "mSv/MBq"}, {"measurement": "Equivalent dose, Muscle, Female", "setting": "[2]; human female phantom", "result": 0.00306, "unit": "mSv/MBq"}, {"measurement": "Equivalent dose, Osteogenic Cells, Female", "setting": "[2]; human female phantom", "result": 0.0145, "unit": "mSv/MBq"}, {"measurement": "Equivalent dose, Pancreas, Female", "setting": "[2]; human female phantom", "result": 0.0089, "unit": "mSv/MBq"}, {"measurement": "Equivalent dose, Red Marrow, Female", "setting": "[2]; human female phantom", "result": 0.0135, "unit": "mSv/MBq"}, {"measurement": "Equivalent dose, Skin, Female", "setting": "[2]; human female phantom", "result": 0.001, "unit": "mSv/MBq"}, {"measurement": "Equivalent dose, Small Intestine, Female", "setting": "[2]; human female phantom", "result": 0.00398, "unit": "mSv/MBq"}, {"measurement": "Equivalent dose, Spleen, Female", "setting": "[2]; human female phantom", "result": 0.0124, "unit": "mSv/MBq"}, {"measurement": "Equivalent dose, Stomach Wall, Female", "setting": "[2]; human female phantom", "result": 0.00374, "unit": "mSv/MBq"}, {"measurement": "Equivalent dose, Testes/Ovaries, Female", "setting": "[2]; human female phantom", "result": 0.00189, "unit": "mSv/MBq"}, {"measurement": "Equivalent dose, Thymus, Female", "setting": "[2]; human female phantom", "result": 0.00198, "unit": "mSv/MBq"}, {"measurement": "Equivalent dose, Thyroid, Female", "setting": "[2]; human female phantom", "result": 0.000543, "unit": "mSv/MBq"}, {"measurement": "Equivalent dose, ULI Wall, Female", "setting": "[2]; human female phantom", "result": 0.00371, "unit": "mSv/MBq"}, {"measurement": "Equivalent dose, Urinary Bladder Wall, Female", "setting": "[2]; human female phantom", "result": 0.00202, "unit": "mSv/MBq"}, {"measurement": "Equivalent dose, Adrenals, Male", "setting": "[2]; human male phantom", "result": 0.00936, "unit": "mSv/MBq"}, {"measurement": "Equivalent dose, Brain, Male", "setting": "[2]; human male phantom", "result": 0.000541, "unit": "mSv/MBq"}, {"measurement": "Equivalent dose, Breasts, Male", "setting": "[2]; human male phantom", "result": 0.000934, "unit": "mSv/MBq"}, {"measurement": "Equivalent dose, Gallbladder Wall, Male", "setting": "[2]; human male phantom", "result": 0.00515, "unit": "mSv/MBq"}, {"measurement": "Equivalent dose, Heart Wall, Male", "setting": "[2]; human male phantom", "result": 0.0319, "unit": "mSv/MBq"}, {"measurement": "Equivalent dose, Kidneys, Male", "setting": "[2]; human male phantom", "result": 0.713, "unit": "mSv/MBq"}, {"measurement": "Equivalent dose, LLI Wall, Male", "setting": "[2]; human male phantom", "result": 0.00166, "unit": "mSv/MBq"}, {"measurement": "Equivalent dose, Liver, Male", "setting": "[2]; human male phantom", "result": 0.006, "unit": "mSv/MBq"}, {"measurement": "Equivalent dose, Lungs, Male", "setting": "[2]; human male phantom", "result": 0.00576, "unit": "mSv/MBq"}, {"measurement": "Equivalent dose, Muscle, Male", "setting": "[2]; human male phantom", "result": 0.00227, "unit": "mSv/MBq"}, {"measurement": "Equivalent dose, Osteogenic Cells, Male", "setting": "[2]; human male phantom", "result": 0.0109, "unit": "mSv/MBq"}, {"measurement": "Equivalent dose, Pancreas, Male", "setting": "[2]; human male phantom", "result": 0.00777, "unit": "mSv/MBq"}, {"measurement": "Equivalent dose, Red Marrow, Male", "setting": "[2]; human male phantom", "result": 0.014, "unit": "mSv/MBq"}, {"measurement": "Equivalent dose, Skin, Male", "setting": "[2]; human male phantom", "result": 0.000859, "unit": "mSv/MBq"}, {"measurement": "Equivalent dose, Small Intestine, Male", "setting": "[2]; human male phantom", "result": 0.0031, "unit": "mSv/MBq"}, {"measurement": "Equivalent dose, Spleen, Male", "setting": "[2]; human male phantom", "result": 0.0101, "unit": "mSv/MBq"}, {"measurement": "Equivalent dose, Stomach Wall, Male", "setting": "[2]; human male phantom", "result": 0.00335, "unit": "mSv/MBq"}, {"measurement": "Equivalent dose, Testes/Ovaries, Male", "setting": "[2]; human male phantom", "result": 0.00137, "unit": "mSv/MBq"}, {"measurement": "Equivalent dose, Thymus, Male", "setting": "[2]; human male phantom", "result": 0.00178, "unit": "mSv/MBq"}, {"measurement": "Equivalent dose, Thyroid, Male", "setting": "[2]; human male phantom", "result": 0.000487, "unit": "mSv/MBq"}, {"measurement": "Equivalent dose, ULI Wall, Male", "setting": "[2]; human male phantom", "result": 0.00309, "unit": "mSv/MBq"}, {"measurement": "Equivalent dose, Urinary Bladder Wall, Male", "setting": "[2]; human male phantom", "result": 0.00152, "unit": "mSv/MBq"}, {"measurement": "Effective dose, Female", "setting": "[2]; whole-body, human female phantom", "result": 0.0237, "unit": "mSv/MBq"}, {"measurement": "Effective dose, Male", "setting": "[2]; whole-body, human male phantom", "result": 0.0217, "unit": "mSv/MBq"}]}
